Experimental data from US20240376151A1, “STAPLED PEPTIDES AND METHODS THEREOF” (FOG PHARMACEUTICALS, INC., priority 2022, published 2024).
One block for each sequence: values may come before it. Numbered stars: 1 amine (or outer) side, 2 acyl side, 3 side chain; on linkers, the order of the positions; unused ones are H or OH. Bridge positions count the residues as written; N and C are the ends. Ends that are not written are not given here. Phenylene(1,4-NHCOCH2)2 = O=C(C[*:1])Nc1ccc(NC(=O)C[*:2])cc1

Assays:
Type in all cases: binding
CUL5 = biological target: T1, CUL5 (Homo sapiens, UniProt Q93034, L345D/V341R); test: Naive Library Presenter Screening (phage, NGS), CUL5; details: for interaction data at Target Concentration 10: CUL5 target concentration 10 nM; for interaction data at Target Concentration 30: CUL5 target concentration 30 nM; for interaction data at Target Concentration 100: CUL5 target concentration 100 nM; for interaction data at Target Concentration 300: CUL5 target concentration 300 nM; for interaction data at Target Concentration 1000: CUL5 target concentration 1000 nM
T1 construct: GST-TEV (N, cleaved yes); made in house; host or cells: E. coli BL21 CodonPlus
T1 sequence (Q93034 1-386 V341R/L345D): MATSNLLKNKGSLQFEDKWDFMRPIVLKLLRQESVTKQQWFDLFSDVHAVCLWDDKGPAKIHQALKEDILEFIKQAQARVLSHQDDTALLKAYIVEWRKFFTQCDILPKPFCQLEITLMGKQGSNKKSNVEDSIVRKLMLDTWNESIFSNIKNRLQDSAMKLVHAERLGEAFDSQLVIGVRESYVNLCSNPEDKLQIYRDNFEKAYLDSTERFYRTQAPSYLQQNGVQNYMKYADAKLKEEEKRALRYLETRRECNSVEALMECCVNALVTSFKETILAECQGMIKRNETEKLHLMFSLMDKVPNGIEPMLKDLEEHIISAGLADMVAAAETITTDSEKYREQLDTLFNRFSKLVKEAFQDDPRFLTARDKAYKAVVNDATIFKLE

CUL4B = biological target: T2, CUL4B (Homo sapiens, UniProt Q13620, L520D/V516R); test: Naive Library Presenter Screening (phage, NGS), CUL4B; details: for interaction data at Target Concentration 1000: CUL4B target concentration 1000 nM
T2 construct: GST-TEV (N, cleaved yes); made in house; host or cells: E. coli BL21 CodonPlus
T2 sequence (Q13620 206-557 V516R/L520D): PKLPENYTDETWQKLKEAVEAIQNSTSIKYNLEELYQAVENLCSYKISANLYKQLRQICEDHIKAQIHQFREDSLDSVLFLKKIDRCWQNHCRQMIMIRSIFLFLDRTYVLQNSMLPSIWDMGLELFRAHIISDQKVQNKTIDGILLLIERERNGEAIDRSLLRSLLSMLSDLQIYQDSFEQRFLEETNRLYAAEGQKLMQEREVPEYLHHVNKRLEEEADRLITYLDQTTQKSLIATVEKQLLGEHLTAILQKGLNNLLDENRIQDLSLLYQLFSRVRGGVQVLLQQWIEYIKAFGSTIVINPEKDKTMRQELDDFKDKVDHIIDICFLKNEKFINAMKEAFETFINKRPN

FBXW7-SKP1 = biological target: T3, FBXW7-SKP1 (Homo sapiens, UniProt Q969H0); test: Naive Library Presenter Screening (phage, NGS), FBXW7-SKP1; details: for interaction data at Target Concentration 10: FBXW7 target concentration 10 nM; for interaction data at Target Concentration 30: FBXW7 target concentration 30 nM; for interaction data at Target Concentration 100: FBXW7 target concentration 100 nM; for interaction data at Target Concentration 300: FBXW7 target concentration 300 nM; for interaction data at Target Concentration 1000: FBXW7 target concentration 1000 nM
T3 construct: FBXW7 (Uniprot ID: Q969H0, residues 263-706) with an N-terminal GST-TEV tag and C-terminal AVI tag; GST-TEV (N); made in house; host or cells: E. coli BL21 (DE3)
Experimental: To conduct phage library screening, previously described procedures were utilized in accordance with the present disclosure.
Next-generation sequencing was performed as described in accordance with the present disclosure.
Hit ID and Clustering is performed according to a described procedure in accordance with the present disclosure.

T3 sequence (Q969H0 263-706): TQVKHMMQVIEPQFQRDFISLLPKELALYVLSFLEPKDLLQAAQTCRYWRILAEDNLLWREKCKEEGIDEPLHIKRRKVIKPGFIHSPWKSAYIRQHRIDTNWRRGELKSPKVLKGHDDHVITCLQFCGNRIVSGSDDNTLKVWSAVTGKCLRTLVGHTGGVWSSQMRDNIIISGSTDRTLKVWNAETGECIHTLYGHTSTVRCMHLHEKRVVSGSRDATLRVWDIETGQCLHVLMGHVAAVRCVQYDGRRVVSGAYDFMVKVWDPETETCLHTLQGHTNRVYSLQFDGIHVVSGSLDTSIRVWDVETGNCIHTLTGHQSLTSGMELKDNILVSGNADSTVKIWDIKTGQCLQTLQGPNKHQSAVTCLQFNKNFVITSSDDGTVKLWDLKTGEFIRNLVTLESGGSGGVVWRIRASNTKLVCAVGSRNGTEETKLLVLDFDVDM
T3 sequence (P63208 whole entry partner, the tested form may be a part): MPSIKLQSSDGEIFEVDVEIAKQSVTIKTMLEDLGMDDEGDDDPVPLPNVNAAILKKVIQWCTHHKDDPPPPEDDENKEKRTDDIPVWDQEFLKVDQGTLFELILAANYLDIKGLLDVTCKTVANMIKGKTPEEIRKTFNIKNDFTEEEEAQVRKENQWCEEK

Sequence: DPAWAICAEAAWDCFMI
- interaction data at Target Concentration 10 (CUL5): 0
- interaction data at Target Concentration 30 (CUL5): 14
- interaction data at Target Concentration 100 (CUL5): 13
- interaction data at Target Concentration 300 (CUL5): 58
- interaction data at Target Concentration 1000 (CUL5; first column): 11
- interaction data at Target Concentration 1000 (CUL5; second column): 0

Sequence: DPAYYVCAEAAWNCLFE
- interaction data at Target Concentration 10 (CUL5): 4
- interaction data at Target Concentration 30 (CUL5): 46
- interaction data at Target Concentration 100 (CUL5): 104
- interaction data at Target Concentration 300 (CUL5): 100
- interaction data at Target Concentration 1000 (CUL5; first column): 76
- interaction data at Target Concentration 1000 (CUL5; second column): 0

Sequence: DPATTECILAAWICDRF
- interaction data at Target Concentration 10 (CUL4B; CUL4B target concentration 10 nM): 0
- interaction data at Target Concentration 30 (CUL4B; CUL4B target concentration 30 nM): 0
- interaction data at Target Concentration 100 (CUL4B; CUL4B target concentration 100 nM): 15
- interaction data at Target Concentration 300 (CUL4B; CUL4B target concentration 300 nM): 31
- interaction data at Target Concentration 1000 (CUL4B; first column): 18
- interaction data at Target Concentration 1000 (CUL4B; second column): 0

Sequence: DPAWRECAHAAWQCYIQ
- interaction data at Target Concentration 10 (CUL5): 0
- interaction data at Target Concentration 30 (CUL5): 50
- interaction data at Target Concentration 100 (CUL5): 47
- interaction data at Target Concentration 300 (CUL5): 21
- interaction data at Target Concentration 1000 (CUL5; first column): 93
- interaction data at Target Concentration 1000 (CUL5; second column): 0

Sequence: DPAMTWCLNAAELCEFW
- interaction data at Target Concentration 10 (FBXW7-SKP1): 0
- interaction data at Target Concentration 30 (FBXW7-SKP1): 0
- interaction data at Target Concentration 100 (FBXW7-SKP1): 0
- interaction data at Target Concentration 300 (FBXW7-SKP1): 3
- interaction data at Target Concentration 1000 (FBXW7-SKP1; first column): 17
- interaction data at Target Concentration 1000 (FBXW7-SKP1; second column): 83

Sequence: DPATFACANAAWECYAR
- interaction data at Target Concentration 10 (CUL5): 0
- interaction data at Target Concentration 30 (CUL5): 6
- interaction data at Target Concentration 100 (CUL5): 25
- interaction data at Target Concentration 300 (CUL5): 11
- interaction data at Target Concentration 1000 (CUL5; first column): 35
- interaction data at Target Concentration 1000 (CUL5; second column): 0

Sequence: DPAWMRCATAAWECVMT
- interaction data at Target Concentration 10 (CUL5): 16
- interaction data at Target Concentration 30 (CUL5): 22
- interaction data at Target Concentration 100 (CUL5): 151
- interaction data at Target Concentration 300 (CUL5): 104
- interaction data at Target Concentration 1000 (CUL5; second column): 0

Sequence: DPAWYECASAAWVCYSM
- interaction data at Target Concentration 10 (CUL5): 0
- interaction data at Target Concentration 30 (CUL5): 13
- interaction data at Target Concentration 100 (CUL5): 94
- interaction data at Target Concentration 300 (CUL5): 60
- interaction data at Target Concentration 1000 (CUL5; first column): 171
- interaction data at Target Concentration 1000 (CUL5; second column): 0

Sequence: DPAWMTCATAAWECYLA
- interaction data at Target Concentration 10 (CUL5): 6
- interaction data at Target Concentration 30 (CUL5): 6
- interaction data at Target Concentration 100 (CUL5): 62
- interaction data at Target Concentration 300 (CUL5): 48
- interaction data at Target Concentration 1000 (CUL5; first column): 55
- interaction data at Target Concentration 1000 (CUL5; second column): 0

Sequence: DPAIRMCRDAAELCEFW
- interaction data at Target Concentration 10 (FBXW7-SKP1): 0
- interaction data at Target Concentration 30 (FBXW7-SKP1): 0
- interaction data at Target Concentration 100 (FBXW7-SKP1): 1
- interaction data at Target Concentration 300 (FBXW7-SKP1): 4
- interaction data at Target Concentration 1000 (FBXW7-SKP1; first column): 66
- interaction data at Target Concentration 1000 (FBXW7-SKP1; second column): 94

Sequence: DPAWWECAEAAWQCQVL
- interaction data at Target Concentration 10 (CUL5): 0
- interaction data at Target Concentration 30 (CUL5): 6
- interaction data at Target Concentration 100 (CUL5): 44
- interaction data at Target Concentration 300 (CUL5): 20
- interaction data at Target Concentration 1000 (CUL5; first column): 59
- interaction data at Target Concentration 1000 (CUL5; second column): 0

Second part, the sequence after the results:

- interaction data at Target Concentration 10 (CUL5): 2
- interaction data at Target Concentration 30 (CUL5): 35
- interaction data at Target Concentration 100 (CUL5): 91
- interaction data at Target Concentration 300 (CUL5): 170
- interaction data at Target Concentration 1000 (CUL5; first column): 31
- interaction data at Target Concentration 1000 (CUL5; second column): 0
Sequence: DPAWFDCAEAAWQCVFI

- interaction data at Target Concentration 10 (CUL5): 5
- interaction data at Target Concentration 30 (CUL5): 61
- interaction data at Target Concentration 100 (CUL5): 106
- interaction data at Target Concentration 300 (CUL5): 119
- interaction data at Target Concentration 1000 (CUL5; first column): 152
- interaction data at Target Concentration 1000 (CUL5; second column): 0
Sequence: DPAWHMCAEAAWQCAFW (not fully specified (C-terminus, bridges); cysteine pairing not given here)

- interaction data at Target Concentration 10 (CUL5): 14
- interaction data at Target Concentration 30 (CUL5): 59
- interaction data at Target Concentration 100 (CUL5): 284
- interaction data at Target Concentration 300 (CUL5): 284
- interaction data at Target Concentration 1000 (CUL5; first column): 265
- interaction data at Target Concentration 1000 (CUL5; second column): 0
Sequence: DPAWQWCAEAAWQCITH (not fully specified (C-terminus, bridges); cysteine pairing not given here)

- interaction data at Target Concentration 10 (CUL5): 1
- interaction data at Target Concentration 30 (CUL5): 167
- interaction data at Target Concentration 100 (CUL5): 267
- interaction data at Target Concentration 300 (CUL5): 385
- interaction data at Target Concentration 1000 (CUL5; first column): 368
- interaction data at Target Concentration 1000 (CUL5; second column): 0
Sequence: DPAWRACAQAAWDCIIA

- interaction data at Target Concentration 10 (CUL5): 0
- interaction data at Target Concentration 30 (CUL5): 65
- interaction data at Target Concentration 300 (CUL5): 96
- interaction data at Target Concentration 1000 (CUL5; first column): 224
- interaction data at Target Concentration 1000 (CUL5; second column): 0
Sequence: DPAWFTCAQAAWDCVFH

- interaction data at Target Concentration 10 (FBXW7-SKP1): 0
- interaction data at Target Concentration 30 (FBXW7-SKP1): 0
- interaction data at Target Concentration 100 (FBXW7-SKP1): 1
- interaction data at Target Concentration 300 (FBXW7-SKP1): 5
- interaction data at Target Concentration 1000 (FBXW7-SKP1; first column): 5
- interaction data at Target Concentration 1000 (FBXW7-SKP1; second column): 82
Sequence: DPATYFCYDAAELCDWW

- interaction data at Target Concentration 10 (CUL5): 0
- interaction data at Target Concentration 30 (CUL5): 13
- interaction data at Target Concentration 100 (CUL5): 30
- interaction data at Target Concentration 300 (CUL5): 40
- interaction data at Target Concentration 1000 (CUL5; first column): 14
- interaction data at Target Concentration 1000 (CUL5; second column): 0
Sequence: DPAIQQCAEAAWSCYVE

- interaction data at Target Concentration 10 (FBXW7-SKP1): 0
- interaction data at Target Concentration 30 (FBXW7-SKP1): 0
- interaction data at Target Concentration 100 (FBXW7-SKP1): 5
- interaction data at Target Concentration 300 (FBXW7-SKP1): 2
- interaction data at Target Concentration 1000 (FBXW7-SKP1; first column): 99
- interaction data at Target Concentration 1000 (FBXW7-SKP1; second column): 15
Sequence: DPANWVCMDAAELCDFY (DPANWVCMDAAELCDFY-NH2; linker 7-14 via Phenylene(1,4-NHCOCH2)2 (inferred))

- interaction data at Target Concentration 10 (FBXW7-SKP1): 0
- interaction data at Target Concentration 30 (FBXW7-SKP1): 0
- interaction data at Target Concentration 100 (FBXW7-SKP1): 1
- interaction data at Target Concentration 300 (FBXW7-SKP1): 3
- interaction data at Target Concentration 1000 (FBXW7-SKP1; first column): 13
- interaction data at Target Concentration 1000 (FBXW7-SKP1; second column): 38
Sequence: DPAYFSCEDAAELCEWY

- interaction data at Target Concentration 10 (FBXW7-SKP1): 4
- interaction data at Target Concentration 30 (FBXW7-SKP1): 131
- interaction data at Target Concentration 100 (FBXW7-SKP1): 203
- interaction data at Target Concentration 300 (FBXW7-SKP1): 946
- interaction data at Target Concentration 1000 (FBXW7-SKP1; first column): 1140
- interaction data at Target Concentration 1000 (FBXW7-SKP1; second column): 1464
Sequence: DPANIACDDAALLCEFW
